US20220251219A1 (published 2022)
Residue numbers refer to the chain shown, from its start. Each block holds one binder with its values, some of them ahead of it.

Legend:
[1] = molecular target: human Sortilin (human, UniProt Q99523 78-830); test: cell-based or functional assay
[2] = molecular target: T1, recombinant human Sortilin (human, UniProt Q99523 78-830); test: flow cytometry, 293 cells expressing recombinant human Sortilin, 10 ug/ml antibody
T1 construct: also called hSort; SORT1
Description: (§1) Cells were harvested, plated at 10⁵/ml in a 96 well plate, washed, and incubated in 100 μl PBS containing 10 μg/ml Mab and 2% FBS for 1 hour in ice. Cells were then washed twice and incubated in 100 μl PBS+2% FBS containing 5 μg/ml PE-conjugated anti-human secondary antibody for 30 minutes in ice. Cells were washed twice in cold PBS and data was acquired on a BD FACS Canto. Data analysis and calculation of MFI values was performed with FlowJo (TreeStar) software version 10.0.7.

[3] = molecular target: T2, recombinant mouse Sortilin (mouse, UniProt Q6PHU5 74-825); test: flow cytometry, 293 cells expressing recombinant mouse Sortilin, 10 ug/ml antibody
T2 construct: also called mSort
Description: as §1

B1: anti-Sortilin antibody S-60 (antibody, V domains shown)
VH: QVQLQESGPGLVKPSETLSLTCAVSGYSISSGYYWGWIRQPPGKGLEWIGTIYHSGSTYYNPSLKSRVTISVDTSKNQFSLKLSSVTAADTAVYYCARQGSIKQGYYGMDVWGQGTTVTVSS
VL: not shown
Fold increase in Progranulin levels in U251 cells [1]: 2.24 fold
Percent reduction of Sortilin levels in U251 cells [1]: 59.5%

B2: anti-Sortilin antibody S-12 (antibody, V domains shown)
VH: QVQLVQSGAEVKKPGASVKVSCKASGYTFTSYGISWVRQAPGQGLEWMGWISAYNGNTNYAQKLQGRVTMTTDTSTSTAYMELRSLRSDDTAVYYCARDLPKYKWGWFDPWGQGTLVTVSS
VL: not shown
Percent reduction of Sortilin levels in U251 cells [1]: 12%

B5: anti-Sortilin antibody S-2 (antibody, V domains shown)
VH: not shown
VL: DIQMTQSPSSLSASVGDRVTITCRASQSISSYLNWYQQKPGKAPKLLIYAASSLQSGVPSRFSGSGSGTDFTLTISSLQPEDFATYYCQQSDVSPITFGGGTKVEIK
notes: IgG
MFI [3]: 22400 MFI
MFI [2]: 8430 MFI

B6: anti-Sortilin antibody S-16 (antibody, V domains shown)
VH: QVQLVQSGAEVKKPGSSVKVSCKASGGTFSSYAISWVRQAPGQGLEWMGGIIPIFGTANYAQKFQGRVTITADESTSTAYMELSSLRSEDTAVYYCARSPYSGTRDFDLWGRGTLVTVSS
VL: B5 VL with L11V, S28G, Y32W, N34A, S53N, S91G, D92N, V93S, S94Y
notes: IgG
MFI [2]: 6280 MFI

B7: anti-Sortilin antibody S-76 (antibody, V domains shown)
VH: QVQLQESGPGLVKPSQTLSLTCTVSGGSISSGGYYWSWIRQHPGKGLEWIGSIYYSGSTYYNPSLKSRVTISVDTSKNQFSLKLSSVTAADTAVYYCARGVGIQQQLVLGFDPWGQGTLVTVSS
VL: B5 VL with Y32F, Y49S, D92Y, V93R, S94E
Percent reduction of Sortilin levels in U251 cells [1]: 20.3%

B8: anti-Sortilin antibody S-65 (antibody, V domains shown)
VH: QVQLQESGPGLVKPSETLSLTCAVSGYSISSGYYWGWIRQPPGKGLEWIGSIYHSGSTYYNPSLKSRVTISVDTSKNQFSLKLSSVTAADTAVYYCAREGQLPTGTFDYWGQGTLVTVSS
VL: not shown
Percent reduction of Sortilin levels in U251 cells [1]: 37.3%

B9: anti-Sortilin antibody S-65 (antibody, V domains shown)
VH: B8 VH
VL: not shown
notes: IgG
MFI [3]: 17900 MFI
MFI [2]: 8070 MFI

B10: anti-Sortilin antibody S-74 (antibody, V domains shown)
VH: QVQLQESGPGLVKPSQTLSLTCTVSGGSISSGTYYWSWIRQHPGKGLEWIGYIYYSGSTYYNPSLKSRVTISVDTSKNQFSLKLSSVTAADTAVYYCARGVGRYRVADYWGQGTLVTVSS
VL: EIVMTQSPATLSLSPGERATLSCRASQSVSSYLAWYQQKPGQAPRLLIYDSSNRATGIPARFSGSGSGTDFTLTISSLEPEDFAVYYCQQETNMPPITFGGGTKVEIK
Percent reduction of Sortilin levels in U251 cells [1]: 22.1%

B12: anti-Sortilin antibody S-83 (antibody, V domains shown)
VH: QLQLQESGPGLVKPSETLSLTCTVSGGSISSSSYYWGWIRQPPGKGLEWIGSIYYSGSTYYNPSLKSRVTISVDTSKNQFSLKLSSVTAADTAVYYCARGSPTWLRDYYMDVWGKGTTVTVSS
VL: EIVLTQSPATLSVSPGERATLSCRASQSVSSNLAWYQQKPGQAPRLLIYGASTRATGIPARFSGSGSGTEFTLTISSLQSEDFAVYYCQQYNAFPPTFGGGTKVEIK
Percent reduction of Sortilin levels in U251 cells [1]: 48.1%

B14: anti-Sortilin antibody S-69 (antibody, V domains shown)
VH: QVQLQESGPGLVKPSQTLSLTCTVSGGSISSGGYYWSWIRQHPGKGLEWIGYIYYSGSTYYNPSLKSRVTISVDTSKNQFSLKLSSVTAADTAVYYCARDRGGTHFGADHYYYGMDVWGQGTMVTVSS
VL: B12 VL with L4M, N32S, Y91A, N92A, A93D, F94W, P96I
Percent reduction of Sortilin levels in U251 cells [1]: 23%

B16: anti-Sortilin antibody S-48 (antibody, V domains shown)
VH: QVQLVESGGGVVQPGRSLRLSCAASGFTFSSYGMHWVRQAPGKGLEWVAVISYDGSNKYYADSVKGRFTISRDNSKNTLYLQMNSLRAEDTAVYYCARESGDRATLVYYYYYGMDVWGQGTTVTVSS
VL: B12 VL with L4M, G50S, A93S, F94W, P96I
notes: IgG
MFI [3]: 11900 MFI
MFI [2]: 8140 MFI

Results, then the binder that gave them:

Percent reduction of Sortilin levels in U251 cells [1]: 37.4%
B3: anti-Sortilin antibody S-64 (antibody, V domains shown)
VH: B8 VH with E99A, G100E, Q101H, L102R, P103G, T104P, G105R, T106Y, Y109L, Q112R
VL: B5 VL with S30N, S91L, V93S, S94T

MFI [2]: 7930 MFI
B4: anti-Sortilin antibody S-64 (antibody, V domains shown)
VH: B8 VH with E99A, G100E, Q101H, L102R, P103G, T104P, G105R, T106Y, Y109L, Q112R
VL: B5 VL with S30N, S91L, V93S, S94T
notes: IgG

MFI [3]: 21400 MFI
MFI [2]: 9480 MFI
B11: anti-Sortilin antibody S-55 (antibody, V domains shown)
VH: QVQLQESGPGLVKPSETLSLTCAVSGYSISSGYYWGWIRQPPGKGLEWIGSIYHSGSTYYNPSLKSRVTISVDTSKNQFSLKLSSVTAADTAVYYCARGRPELGWDKYFQHWGQGTLVTVSS
VL: DIQMTQSPSSVSASVGDRVTITCRASQGISRWLAWYQQKPGKAPKLLIYAASSLQSGVPSRFSGSGSGTDFTLTISSLQPEDFATYYCQQANALPTFGGGTKVEIK
notes: IgG

MFI [3]: 15100 MFI
MFI [2]: 7770 MFI
B13: anti-Sortilin antibody S-58 (antibody, V domains shown)
VH: QVQLQESGPGLVKPSETLSLTCAVSGYSISSGYYWGWIRQPPGKGLEWIGSIYHSGNTYYNPSLKSRVTISVDTSKNQFSLKLSSVTAADTAVYYCARGPPELGKMYFQHWGQGTLVTVSS
VL: B12 VL with Y91D, N92R, A93K, F94G, P96L
notes: IgG

MFI [3]: 21800 MFI
MFI [2]: 7480 MFI
B15: anti-Sortilin antibody S-61 (antibody, V domains shown)
VH: QVQLQESGPGLVKPSETLSLTCAVSGYSISSGYYWGWIRQPPGKGLEWIGSIYHSGSTYYNPSLKSRVTISVDTSKNQFSLKLSSVTAADTAVYYCARGSPRFYYGSGSYLDLFDIWGQGTMVTVSS
VL: B12 VL with L4M, Q90E, N92L, A93N, F94Y, P96I
notes: IgG

MFI [3]: 2630 MFI
MFI [2]: 7410 MFI
B17: anti-Sortilin antibody S-40 (antibody, V domains shown)
VH: not shown
VL: EIVMTQSPATLSLSPGERATLSCRASQSVSSYLAWYQQKPGQAPRLLIYDASNRATGIPARFSGSGSGTDFTLTISSLEPEDFAVYYCQQRSALPFTFGGGTKVEIK
notes: IgG

MFI [3]: 21900 MFI
MFI [2]: 12200 MFI
B18: anti-Sortilin antibody S-51 (antibody, V domains shown)
VH: QVQLVESGGGVVQPGRSLRLSCAASGFTFSSYGMHWVRQAPGKGLEWVAVISYDGSNKYYADSVKGRFTISRDNSKNTLYLQMNSLRAEDTAVYYCAKGLEYYDSSRLYYPYYYYMDVWGKGTTVTVSS
VL: B17 VL with M4L, N53K, A93N, L94Y, F96I
notes: IgG
